Measured values reported in paper PMC9878616.

Target: N-terminal GST-like domain of P. berghei glutamyl-tRNA synthetase (ERS-N) (P. berghei)
Assay: SEC-SAXS

Substance: N-terminal GST-like domain of P. berghei glutamyl-tRNA synthetase (ERS-N) (from UniProt A0A509AR09 1-240) (domain or fragment)
- percent of dimers (OLIGOMER fit): 77.9%
- percent of tetramers (OLIGOMER fit): 22.1%
